{"source": "paper PMC7954794", "about": "“Protein context shapes the specificity of SH3 domain-mediated interactions in vivo” (Nature Communications, 2021)", "parents": {"B1": {"name": "S. cerevisiae Abp1 (full length; SH3 domain 535-592 mutated) / Hua2 (parent)", "chain 1": "MALEPIDYTTHSREIDAEYLKIVRGSDPDTTWLIISPNAKKEYEPESTGSSFHDFLQLFDETKVQYGLARVSPPGSDVEKIIIIGWCPDSAPLKTRASFAANFAAVANNLFKGYHVQVTARDEDDLDENELLMKISNAAGARYSIQTSSKQQGKASTPPVKKSFTPSKSPAPVSKKEPVKTPSPAPAAKISSRVNDNNDDDDWNEPELKERDFDQAPLKPNQSSYKPIGKIDLQKVIAEEKAKEDPRLVQKPTAAGSKIDPSSDIANLKNESKLKRDSEFNSFLGTTKPPSMTESSLKNDDDKVIKGFRNEKSPAQLWAERKAKQNSGNAETKAEAPKPEVPEDEPEGEPDVKDLKSKFEGLAASEKEEEEMENKFAPPPKKSEPTIISPKPFSKPQEPVKAEEAEQPKTDYKKIGNPLPGMHIEADNEEEPEENDDDWDDDEDEAAQPPLPSRNVASGAPVQKEEPEQEEIAPSLPSRNSIPAPKQEEAPEQAPEEEIEEEAEEAAPQLPSRSSAAPPPPPRRATPEKKPKENPWATAEYDYDAAEDNELTFVENDKIINIEFVDDDWWLGELEKDGSKGLFPSNYVSLGN", "chain 2": "MQQTKFGKMYLDHDSVVEYSEDEIVEADRITLGYKKRLSMIENQMRHLLEDFSLDVQQIEPILADLQKYYDAFLQLLQKRNKSLQCKRSTHQPVPSPMNSQTSTNAKVNLSGKLMKFQLNSVQKFDEENILRILQNKIEFEHYFQIDKGKKQKVLLLAVYQCLNGPTRLHKVLNIEGIIHNNSIRTILGKQVSSSKWTVFLYDVKLVLLAHRQDVPNLETSKMIVRYGDLFPCALYFKDHTAY"}}}
{"variants_of": "B1", "assay": "DHFR protein-fragment complementation in yeast (Abp1-DHFR F[1,2] x partner-DHFR F[3]), deep mutational scanning, second methotrexate selection vs reference", "settings": "with Hua2; S. cerevisiae, DHFR-PCA selection in liquid with methotrexate at 30 C, two 72 h selections (the score uses the second); reference = the pre-selection culture; value at the no-binding floor (a bound); scale: DMS score: mean over two replicates of log2(f_test/f_ref + 0.5)/ln 2, minus the synonymous-codon median"}
{"variant": "chain 1 D568M", "screen value": "< -3.06"}
{"variant": "chain 1 D568I", "screen value": "< -3.06"}
{"variant": "chain 1 D568L", "screen value": "< -3.06"}
{"variant": "chain 1 D568K", "screen value": "< -3.06"}
{"variant": "chain 1 D568R", "screen value": "< -3.06"}
{"variant": "chain 1 D568Q", "screen value": -3.01}
{"variant": "chain 1 W569M", "screen value": -2.99}
{"variant": "chain 1 W569K", "screen value": -3.02}
{"variant": "chain 1 Y541R", "screen value": -3.01}
{"variant": "chain 1 S585Q", "screen value": "< -3.06"}
{"variant": "chain 1 E547R", "screen value": -3.04}
{"variant": "chain 1 N586R", "screen value": -2.99}
{"variant": "chain 1 D566C", "screen value": "< -3.06"}
{"variant": "chain 1 D566R", "screen value": -3.03}
{"variant": "chain 1 D566F", "screen value": -2.99}
{"variant": "chain 1 D566S", "screen value": "< -3.06"}
{"variant": "chain 1 D567C", "screen value": "< -3.06"}
{"variant": "chain 1 D567I", "screen value": "< -3.06"}
{"variant": "chain 1 D567T", "screen value": -3}
{"variant": "chain 1 D567S", "screen value": -3.02}
{"variant": "chain 1 D567P", "screen value": "< -3.06"}
{"variant": "chain 1 D567K", "screen value": -3.03}
{"variant": "chain 1 D567R", "screen value": "< -3.06"}
{"variants_of": "B1", "assay": "DHFR protein-fragment complementation in yeast (Abp1-DHFR F[1,2] x partner-DHFR F[3]), deep mutational scanning, second methotrexate selection vs reference", "settings": "with Hua2; S. cerevisiae, DHFR-PCA selection in liquid with methotrexate at 30 C, two 72 h selections (the score uses the second); reference = the pre-selection culture; not an affinity; value at the no-binding floor (a bound); scale: DMS score: mean over two replicates of log2(f_test/f_ref + 0.5)/ln 2, minus the synonymous-codon median"}
{"variant": "chain 1 W570V", "screen value": -3.02}
{"variant": "chain 1 E550M", "screen value": "< -3.06"}
{"variant": "chain 1 F583N", "screen value": "< -3.06"}
